The supplement of paper PMC7877785
± gives the uncertainty stated by the source.

Assay: self-splicing fitness, log relative to wild type (ln ratio); higher = more splicing; Tetrahymena group I intron in knt gene, E. coli kanamycin selection, DiMSum; sequences stand for … in CUCUCU…GGAGGGAAAAGUUAUCAGGCAUGCACCUGGUAGCUAGUCUUUAAACCAAUAGAUUGCAUCGGUUUAAAAGGCAAGACCGUCAAAUUGCGGGAAAGGGGUCAACAGCCGUUCAGUACCAAGUCUCAGGGGAAACUUUGAGAUGGCCUUGCAAAGGGUAUGGUAAUAAGCUGACGGACAUGGUCCUAACCACGCAGCCAAGUCCUAAGUCAACAGAUCUUCUGUUGAUAUGGAUGCAGUUCACAGACUAAAUGUCGGUCGGGGAAGAUGUAUUCUUCUCAUAAGAUAUAGUCGGACCUCUCCUUAAUGGGAGCUAGCGGAUGAAGUGAUGCAACACUGGAGCCGCUGGGAACUAAUUUGUAUGCGAAAGUAUAUUGAUUAGUUUUGGAGUACUCGUGGUCG
In short: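 Six replicate transformations of E. coli BL21(DE3) with a pET-22b(+) library were grown overnight at 37°C or 30°C. The library randomised all eight P1ex-region intron nucleotides, the intron lying in the knt kanamycin-resistance gene, and plates were LB agar with or without 25 μg/mL kanamycin plus 100 μg/mL carbenicillin, 50 μM IPTG and 0.2% rhamnose. Pooled colonies were amplicon-sequenced on an Illumina HiSeq 2500, and fitness is the DiMSum error-weighted combination of wild-type-normalised replicate fold changes, kanamycin versus none.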

Sequence	self-splicing fitness (ln) (30 °C)	self-splicing fitness (ln) (37 °C)
CAUCAGCAAUAUUACGGUAG	-0.362 ± 0.075	0.051 ± 0.085
CAUCAGCAAUAUUACGUAUC	-1.9 ± 0.092	-1.05 ± 0.098
CAUCAGCAAUAUUACGUGCU	-3.71 ± 0.28	-2.46 ± 0.21
CAUCAGCAAUAUUACGUUGU	-3.52 ± 0.14	-2.92 ± 0.16
CAUGAGCAAUAUUACGAAGG	-3.17 ± 0.19	-2.05 ± 0.21
CAUGAGCAAUAUUACGACAG	-1.89 ± 0.13	-1.02 ± 0.15
CAUGAGCAAUAUUACGACCU	-2.47 ± 0.29	-0.931 ± 0.26
CAUGAGCAAUAUUACGACUG	-1.78 ± 0.13	-0.743 ± 0.18
CAUGAGCAAUAUUACGAGGU	-3.26 ± 0.33	-3.11 ± 0.4
CAUGAGCAAUAUUACGAUCG	-0.0708 ± 0.12	-0.399 ± 0.14
CAUGAGCAAUAUUACGCACG	-0.622 ± 0.097	-0.67 ± 0.11
CAUGAGCAAUAUUACGCCUC	–	-1.75 ± 0.42
CAUGAGCAAUAUUACGCCUG	-2.93 ± 0.21	-2.02 ± 0.35
CAUGAGCAAUAUUACGCGAC	–	-2.84 ± 0.44
CAUGAGCAAUAUUACGCGUG	-4.92 ± 0.36	-2.71 ± 0.26
CAUGAGCAAUAUUACGCUAA	–	-2.94 ± 0.43
CAUGAGCAAUAUUACGGCAU	-3.35 ± 0.34	-2.9 ± 0.47
CAUGAGCAAUAUUACGGGAC	-2.99 ± 0.18	-1.95 ± 0.24
CAUGAGCAAUAUUACGGGCG	-0.135 ± 0.075	0.178 ± 0.092
CAUGAGCAAUAUUACGGUAG	-2.01 ± 0.1	-0.949 ± 0.11
CAUGAGCAAUAUUACGGUCC	-3.81 ± 0.37	–
CAUGAGCAAUAUUACGGUGC	-3.35 ± 0.28	-3 ± 0.26
CAUGAGCAAUAUUACGGUGU	-4.27 ± 0.28	-2.54 ± 0.23
CAUGAGCAAUAUUACGGUUG	-1.97 ± 0.094	-0.986 ± 0.12
CAUGAGCAAUAUUACGUAGA	-4.22 ± 0.27	-2.77 ± 0.21

Sequence	self-splicing fitness (ln) (30 °C)	self-splicing fitness (ln) (37 °C)
CAUGAGCAAUAUUACGUAGC	-1.64 ± 0.17	-1.96 ± 0.26
CAUGAGCAAUAUUACGUCAG	-1.35 ± 0.095	-1.13 ± 0.12
CAUGAGCAAUAUUACGUGAC	-3.75 ± 0.25	–
CAUGAGCAAUAUUACGUGCG	-1.75 ± 0.077	-0.908 ± 0.083
CAUGAGCAAUAUUACGUUGA	-2.92 ± 0.18	-3.4 ± 0.29
CAUUAGCAAUAUUACGAAUG	-2.67 ± 0.19	-2.28 ± 0.3
CAUUAGCAAUAUUACGACAC	-2.3 ± 0.2	-1.89 ± 0.23
CAUUAGCAAUAUUACGACAU	-3.364 ± 0.024	-1.97 ± 0.036
CAUUAGCAAUAUUACGACUA	-1.75 ± 0.49	–
CAUUAGCAAUAUUACGACUU	-1.99 ± 0.16	-1.71 ± 0.18
CAUUAGCAAUAUUACGAGAG	-2.5 ± 0.19	-2.63 ± 0.21
CAUUAGCAAUAUUACGAUAC	-3.07 ± 0.47	-2.23 ± 0.43
CAUUAGCAAUAUUACGAUUU	-2.32 ± 0.13	-1.56 ± 0.15
CAUUAGCAAUAUUACGCAGA	–	-1.78 ± 0.31
CAUUAGCAAUAUUACGCGGG	-1.95 ± 0.3	0.421 ± 0.2
CAUUAGCAAUAUUACGCUCC	–	-1.18 ± 0.38
CAUUAGCAAUAUUACGGCCA	-2.3 ± 0.28	–
CAUUAGCAAUAUUACGGGAU	-3.2 ± 0.19	-2.92 ± 0.23
CAUUAGCAAUAUUACGGGCA	-2.73 ± 0.27	-1.1 ± 0.16
CAUUAGCAAUAUUACGGUGA	-2.79 ± 0.19	-1.92 ± 0.13
CAUUAGCAAUAUUACGUCAG	-0.381 ± 0.091	-0.0898 ± 0.098
CAUUAGCAAUAUUACGUGAA	-2.94 ± 0.21	-3.18 ± 0.29
CAUUAGCAAUAUUACGUGGU	-4.46 ± 0.21	-2.6 ± 0.16
CCAAAGCAAUAUUACGAACC	-3.78 ± 0.47	-1.5 ± 0.34
CCAAAGCAAUAUUACGAGCA	-3.64 ± 0.23	-3.23 ± 0.26

Sequence	self-splicing fitness (ln) (30 °C)	self-splicing fitness (ln) (37 °C)
CCAAAGCAAUAUUACGAGUA	-3.15 ± 0.23	-2.6 ± 0.23
CCAAAGCAAUAUUACGCAGC	-3.4 ± 0.26	-2.49 ± 0.33
CCAAAGCAAUAUUACGCAUG	-1.22 ± 0.063	-0.772 ± 0.084
CCAAAGCAAUAUUACGCCAG	-1.3 ± 0.1	-0.0837 ± 0.13
CCAAAGCAAUAUUACGCGCA	-3.48 ± 0.28	-3.13 ± 0.24
CCAAAGCAAUAUUACGGCGC	-3.65 ± 0.34	-2.49 ± 0.29
CCAAAGCAAUAUUACGGUUC	-2.91 ± 0.12	-2.34 ± 0.2
CCAAAGCAAUAUUACGUCGC	-3.49 ± 0.18	-2.29 ± 0.18
CCAAAGCAAUAUUACGUCGU	-3.82 ± 0.19	-2.75 ± 0.23
CCAAAGCAAUAUUACGUCUG	-0.9 ± 0.054	-0.302 ± 0.066
CCAAAGCAAUAUUACGUGCC	-3.77 ± 0.35	-2.31 ± 0.35
CCAAAGCAAUAUUACGUGUC	-3.56 ± 0.21	-3.6 ± 0.29
CCAAAGCAAUAUUACGUUGG	-4.54 ± 0.27	-3.32 ± 0.29
CCAAAGCAAUAUUACGUUUA	-3.26 ± 0.17	-2.63 ± 0.17
CCAAAGCAAUAUUACGUUUC	-4.24 ± 0.25	-2.78 ± 0.24
CCACAGCAAUAUUACGAAAU	-4.25 ± 0.24	-2.02 ± 0.17
CCACAGCAAUAUUACGACAC	-3.68 ± 0.29	-1.5 ± 0.18
CCACAGCAAUAUUACGACGC	-3.76 ± 0.33	-2.08 ± 0.35
CCACAGCAAUAUUACGAGCG	-0.707 ± 0.048	0.184 ± 0.065
CCACAGCAAUAUUACGCGAU	-3.36 ± 0.17	-3.66 ± 0.21
CCACAGCAAUAUUACGCGUA	-2.81 ± 0.18	-2.41 ± 0.2
CCACAGCAAUAUUACGCGUU	-3.65 ± 0.092	-2.91 ± 0.13
CCACAGCAAUAUUACGGCGG	-3.15 ± 0.14	-1.08 ± 0.12
CCACAGCAAUAUUACGGGUC	-3.86 ± 0.18	-2.89 ± 0.17
CCACAGCAAUAUUACGGGUG	-2.04 ± 0.05	-0.716 ± 0.059

Sequence	self-splicing fitness (ln) (30 °C)	self-splicing fitness (ln) (37 °C)
CCACAGCAAUAUUACGUAGC	-4.48 ± 0.29	-2.7 ± 0.26
CCACAGCAAUAUUACGUAUA	-4.05 ± 0.24	-2.84 ± 0.23
CCACAGCAAUAUUACGUCUU	-3.88 ± 0.14	-2.85 ± 0.12
CCACAGCAAUAUUACGUGCA	-4.24 ± 0.24	-2.5 ± 0.12
CCACAGCAAUAUUACGUGGG	-3.56 ± 0.14	-3.13 ± 0.18
CCACAGCAAUAUUACGUUAC	-3.16 ± 0.21	-2.17 ± 0.17
CCAGAGCAAUAUUACGAACA	-2.39 ± 0.47	-1.48 ± 0.49
CCAGAGCAAUAUUACGACAU	-3.776 ± 0.029	-3.03 ± 0.043
CCAGAGCAAUAUUACGACUC	-1.93 ± 0.32	-1.12 ± 0.43
CCAGAGCAAUAUUACGAGGG	-4.31 ± 0.39	-2.39 ± 0.41
CCAGAGCAAUAUUACGAUGU	-3.69 ± 0.23	-1.83 ± 0.17
CCAGAGCAAUAUUACGAUUU	-3.77 ± 0.35	-3.59 ± 0.39
CCAGAGCAAUAUUACGCACU	-2.9 ± 0.25	–
CCAGAGCAAUAUUACGCAUC	-2.56 ± 0.28	-1.99 ± 0.31
CCAGAGCAAUAUUACGCCCU	-2.65 ± 0.48	-2.07 ± 0.36
CCAGAGCAAUAUUACGCCUG	–	-2.66 ± 0.36
CCAGAGCAAUAUUACGCGCA	-3.16 ± 0.25	–
CCAGAGCAAUAUUACGCGGA	-3.2 ± 0.34	-2.49 ± 0.24
CCAGAGCAAUAUUACGCGGU	-3.94 ± 0.23	-3.14 ± 0.33
CCAGAGCAAUAUUACGCUCA	-3.24 ± 0.38	-1.42 ± 0.37
CCAGAGCAAUAUUACGCUCG	-2.32 ± 0.28	-1.95 ± 0.38
CCAGAGCAAUAUUACGCUUG	-3.27 ± 0.26	-2.93 ± 0.35
CCAGAGCAAUAUUACGGACU	-3.62 ± 0.48	-0.487 ± 0.4
CCAGAGCAAUAUUACGGCAG	-1.8 ± 0.088	-1 ± 0.13
